Our source for the IC50 values is the Immune Epitope Database (IEDB).

Holding throughout (experiment): IEDB peptide-MHC binding, purified MHC/competitive/radioactivity; ≥ and ≤ were set here for values at or beyond the usual limits of such assays
Common to all, as to conditions: source organism: Bordetella pertussis

Test [1] concerns the target HLA-B*44:03.
Test [2] has as its target HLA-A*02:01.
For test [3], the target named is HLA-B*07:02.
Test [4] deals with HLA-B*53:01.
The target in test [5] is HLA-B*35:01.
Test [6] concerns the target HLA-B*57:01.

pIC50: −log10 of the molar value. A value given as a limit tells only on which side of the number the result lay.

As to DGPPSRPTT, the negative logarithm of the IC50 (pIC50) in test [1] is at most 4.15.
Consider FQTYALTGI, for which the negative logarithm of the IC50 (pIC50) in test [2] is 5.88.
With LPSIPGTSI, in test [3], the negative logarithm of the IC50 (pIC50) is 6.94.
For NPGSLIAEV, the negative-log IC50 (pIC50) in test [4] is 4.23.
Regarding PAVALPRPL, in test [3], the negative logarithm of the IC50 (pIC50) was at most 4.11.
For QAAPLSITL, the negative-log IC50 (pIC50) in test [5] and in test [4] was 5.35 in each case.
Regarding RSRVRALAW, the negative logarithm of the IC50 (pIC50) in test [6] is 7.92.
For the sequence TAFMSGRSL, the pIC50 in test [3] was 4.25.
For TSKQDERNY, the pIC50 in test [6] is at most 4.15.
Regarding VGGGEHGRW, the negative-log IC50 (pIC50) in test [6] is 4.24.
Regarding YEAGFSLGS, the negative logarithm of the IC50 (pIC50) in test [1] was 4.45.
